Measured values reported in patent publication US20180185450A1 (Sanofi, published 2018).
Positions count from the first letter of the chain named. Numbered stars: 1 amine (or outer) side, 2 acyl side, 3 side chain; on linkers, the order of the positions; unused ones are H or OH. Square brackets hold non-standard residues; d marks the D form. Side chains are listed from the residue outwards. Ends that are not written are not given here. γGlu = O=C(O)[C@H](CCC(=O)[*:2])N[*:1]; x53 = not defined here; x70 = not defined here; x76 = not defined here; Aib = CC(C)(N)C(=O)O

B1: SEQ ID NO: 204 (peptide)
peptide: HXQGTFTSDLSKQKESRAAQLFIEWLKAXGPSSGAPPPS
modifications: Aib at 2; K(γE-x76) at 14; dAla at 29; C-terminal NH2
B2: SEQ ID NO: 27 (peptide)
peptide: B1 peptide with R17K, X29G
modifications: dSer at 2; K(γE-x70) at 14; C-terminal NH2
B3: SEQ ID NO: 37 (peptide)
peptide: B1 peptide with R17Q, L21E, X29G
modifications: dSer at 2; K(γE-x53) at 14; C-terminal NH2
B4: SEQ ID NO: 28 (peptide)
peptide: B1 peptide with R17K, L21E, X29G
modifications: dSer at 2; K(γE-x53) at 14; C-terminal NH2
B5: SEQ ID NO: 210 (peptide)
peptide: B1 peptide with E15D, S16K, A18R
modifications: Aib at 2; K(γE-x70) at 14; dAla at 29; C-terminal NH2
B6: SEQ ID NO: 212 (peptide)
peptide: B1 peptide with E15D, S16K
modifications: Aib at 2; K(γE-x76) at 14; dAla at 29; C-terminal NH2
B7: SEQ ID NO: 32 (peptide)
peptide: B1 peptide with R17K, L21D, X29G
modifications: dSer at 2; K(x53) at 14; C-terminal NH2
B8: SEQ ID NO: 19 (peptide)
peptide: B1 peptide with S16E, R17E, Q20K, X29G
modifications: dSer at 2; K(γE-x53) at 14; C-terminal NH2
B9: SEQ ID NO: 20 (peptide)
peptide: B1 peptide with R17E, L21D, X29G
modifications: dSer at 2; K(γE-x53) at 14; C-terminal NH2
B10: SEQ ID NO: 205 (peptide)
peptide: B1 peptide with A18R
modifications: Aib at 2; K(γE-x70) at 14; dAla at 29; C-terminal NH2
B11: SEQ ID NO: 40 (peptide)
peptide: B1 peptide with R17Q, L21D, X29G
modifications: dSer at 2; K(γE-x70) at 14; C-terminal NH2
B12: SEQ ID NO: 35 (peptide)
peptide: B1 peptide with R17Q, L21D, X29G
modifications: dSer at 2; K(γE-x53) at 14; C-terminal NH2
B13: SEQ ID NO: 29 (peptide)
peptide: B1 peptide with R17K, X29G
modifications: dSer at 2; K(γE-x53) at 14; C-terminal NH2
B14: SEQ ID NO: 209 (peptide)
peptide: B1 peptide with E15D, S16K, A18R, L21D
modifications: Aib at 2; K(γE-x70) at 14; dAla at 29; C-terminal NH2
B15: SEQ ID NO: 211 (peptide)
peptide: B1 peptide with E15D, S16K
modifications: Aib at 2; K(γE-x70) at 14; dAla at 29; C-terminal NH2
B16: SEQ ID NO: 26 (peptide)
peptide: B1 peptide with R17K, L21D, X29G
modifications: dSer at 2; K(γE-x70) at 14; C-terminal NH2
B17: SEQ ID NO: 21 (peptide)
peptide: B1 peptide with R17E, X29G
modifications: dSer at 2; K(γE-x53) at 14; C-terminal NH2
B18: SEQ ID NO: 39 (peptide)
peptide: B1 peptide with E15D, R17Q, L21D, X29G
modifications: dSer at 2; K(γE-x53) at 14; C-terminal NH2
B19: SEQ ID NO: 203 (peptide)
peptide: H[Aib]QGTFTSDLSKQK([γGlu-x76])ESRAAQLFIEWLKAGGPSSGAPPPS-NH2
modifications: reading uncertain
B20: SEQ ID NO: 25 (peptide)
peptide: H[Aib]QGTFTSDLSKQK([γGlu-x53])ESKAAQDFIEWLKAGGPSSGAPPPS-NH2
modifications: reading uncertain
B21: SEQ ID NO: 213 (peptide)
peptide: H[Aib]QGTFTSDLSKQK([γGlu-x70])DEEAAKLFIEWLKAGGPSSGAPPPS-NH2
modifications: reading uncertain
B22: SEQ ID NO: 208 (peptide)
peptide: HSHGTFTSDLSKQK([γGlu-x53])ESRRAQDFIEWLKAGGPSSGAPPPS-NH2
modifications: reading uncertain

target: human glucagon receptor (human, UniProt P47871 26-477); assay: cell-based or functional assay
Sequence (P47871 26-477): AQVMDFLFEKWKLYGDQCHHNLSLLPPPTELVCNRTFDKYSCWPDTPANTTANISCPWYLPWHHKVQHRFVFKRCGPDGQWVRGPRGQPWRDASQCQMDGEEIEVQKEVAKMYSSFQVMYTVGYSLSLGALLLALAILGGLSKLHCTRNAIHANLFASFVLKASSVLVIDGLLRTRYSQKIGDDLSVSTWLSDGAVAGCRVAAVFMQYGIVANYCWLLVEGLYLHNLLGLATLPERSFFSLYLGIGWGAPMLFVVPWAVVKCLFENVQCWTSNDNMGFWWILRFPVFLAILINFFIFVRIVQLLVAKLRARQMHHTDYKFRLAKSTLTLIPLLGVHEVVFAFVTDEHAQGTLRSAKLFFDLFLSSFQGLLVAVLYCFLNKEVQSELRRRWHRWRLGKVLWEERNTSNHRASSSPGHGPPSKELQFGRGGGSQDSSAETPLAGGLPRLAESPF

| Binder | EC50 hGlucagon-R (cAMP) [pM] |
| --- | --- |
| B1 | 12.5 |
| B2 | 25.1 |
| B3 | 12.9 |
| B4 | 12.6 |
| B5 | 3 |
| B6 | 6.6 |
| B7 | 188 |
| B8 | 104 |
| B9 | 104 |
| B10 | 5.2 |
| B11 | 4.8 |
| B12 | 14.2 |
| B13 | 87.9 |
| B14 | 1.9 |
| B15 | 26.4 |
| B16 | 5.4 |
| B17 | 144 |
| B18 | 7.6 |
| B19 | 13.1 |
| B20 | 40.6 |
| B21 | 59.1 |
| B22 | 1.3 |

target: human GLP-1 receptor (human, UniProt P43220 24-463); assay: cell-based or functional assay

| Binder | EC50 hGLP-1R (cAMP) [pM] |
| --- | --- |
| B1 | 34.1 |
| B2 | 7.7 |
| B3 | 1.5 |
| B4 | 5.5 |
| B5 | 6.7 |
| B6 | 14.1 |
| B7 | 10.2 |
| B8 | 1.9 |
| B9 | 3.8 |
| B10 | 12.3 |
| B11 | 2.6 |
| B12 | 1.5 |
| B13 | 5.9 |
| B14 | 5.4 |
| B15 | 15.5 |
| B16 | 5.1 |
| B17 | 3.8 |
| B18 | 2.7 |
| B19 | 34.9 |
| B20 | 4.2 |
| B21 | 2.7 |
| B22 | 2 |
